Source: the supplement of paper PMC10724198

Experiments:
[1] = system: Saccharomyces cerevisiae; experiment: protein stability index of tFT-peptide fusion in deletion strain of DOA10 (PSI (0-1 scale)); higher = more stable (slower turnover)
Experimental: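 MPS profiling in S. cerevisiae of two library types built from selected 12-aa C-degron peptides (IN1, IN2, LN1, LN3, VN2, R1-R5, W1-W3, Atg1 and Rpa12 C-termini): saturation mutagenesis libraries and C-terminal +1 capping libraries (13 aa). Each peptide is fused to the C-terminus of a sfGFP-mCherry timer, after a GGGS linker. Cells are FACS-sorted into 8 mCherry/sfGFP bins and sequenced. PSI runs from 0 (unstable) to 1 (stable), measured once in wild type and in the das1Δ or doa10Δ background.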

[2] = system: Saccharomyces cerevisiae; experiment: protein stability index of tFT-peptide fusion in wild type (PSI (0-1 scale)); higher = more stable (slower turnover); conditions: genetic background: wild type
[3] = system: Saccharomyces cerevisiae; experiment: protein stability index of tFT-peptide fusion in deletion strain of DAS1 (PSI (0-1 scale)); higher = more stable (slower turnover)
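Throughout, for protein stability index of tFT-peptide fusion in deletion strain of DAS1: PSI is a weighted mean of each variant's read distribution over the sorted stability bins, computed only for variants having over 10 reads in total.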
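Throughout, for protein stability index of tFT-peptide fusion in deletion strain of DOA10: PSI per variant is the weighted mean of its sequencing read distribution over the sorted stability bins, counting only variants with over 10 reads summed across bins.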
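Throughout, for protein stability index of tFT-peptide fusion in wild type: PSI derived as read-weighted mean over the 8 sorting bins, only variants exceeding 10 total reads kept, mCherry placed adjacent to the peptide and sfGFP distal.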

For AITCPMCPLLLR, the protein stability index [1] was 0.643 and the protein stability index [2] was 0.297.
For AITLCMCPLLLR, the protein stability index [1] was 0.665 and the protein stability index [2] was 0.487.
Sequence AITLDMCPLLLR has a protein stability index [1] of 0.68 and a protein stability index [2] of 0.346.
With AITLMMCPLLLR the protein stability index [1] was 0.612 and the protein stability index [2] was 0.302.
AITLPMCLLLLR showed a protein stability index [1] of 0.629 and a protein stability index [2] of 0.116.
Sequence AITLPMCPLLLRA has a protein stability index [1] of 0.3 and a protein stability index [2] of 0.171.
Sequence AITLPMCPLLLRC has a protein stability index [1] of 0.381 and a protein stability index [2] of 0.0981.
AITLPMCPLLLRS was tested, and the protein stability index [1] was 0.554 and the protein stability index [2] was 0.261.
AITLPMCPLLLRT gave a protein stability index [1] of 0.441 and a protein stability index [2] of 0.169.
Sequence AITLPMCPPLLR has a protein stability index [1] of 0.663 and a protein stability index [2] of 0.546.
Work on AITLPMCRLLLR yielded a protein stability index [1] of 0.651 and a protein stability index [2] of 0.27.
Work on AITLPMCSLLLR yielded a protein stability index [1] of 0.656 and a protein stability index [2] of 0.212.
In the case of AITLPMCTLLLR, the protein stability index [1] is reported as 0.675 and the protein stability index [2] is reported as 0.116.
In the case of AITLPMFPLLLR, the protein stability index [1] is reported as 0.638 and the protein stability index [2] is reported as 0.16.
AITLPMGPLLLR showed a protein stability index [1] of 0.688 and a protein stability index [2] of 0.186.
AITLPMKPLLLR gave a protein stability index [1] of 0.659 and a protein stability index [2] of 0.297.
With AITLPVCPLLLR the protein stability index [1] was 0.652 and the protein stability index [2] was 0.229.
With AITLPWCPLLLR the protein stability index [1] was 0.662 and the protein stability index [2] was 0.153.
For AITLVMCPLLLR, the protein stability index [1] was 0.679 and the protein stability index [2] was 0.547.
AITMPMCPLLLR showed a protein stability index [1] of 0.677 and a protein stability index [2] of 0.285.
Sequence AITTPMCPLLLR has a protein stability index [1] of 0.668 and a protein stability index [2] of 0.462.
For AITWPMCPLLLR, the protein stability index [1] was 0.7 and the protein stability index [2] was 0.226.
In the case of AMTLPMCPLLLR, the protein stability index [1] is reported as 0.646 and the protein stability index [2] is reported as 0.223.
APTLPMCPLLLR gave a protein stability index [1] of 0.664 and a protein stability index [2] of 0.29.
Work on ASTLPMCPLLLR yielded a protein stability index [1] of 0.668 and a protein stability index [2] of 0.408.
Sequence AVTLPMCPLLLR has a protein stability index [1] of 0.648 and a protein stability index [2] of 0.261.
Work on CLDSLPILLFFR yielded a protein stability index [1] of 0.664 and a protein stability index [2] of 0.214.
CLNSLPILLFFR gave a protein stability index [1] of 0.627 and a protein stability index [2] of 0.109.
CLVELPILLFFR was tested, and the protein stability index [1] was 0.625 and the protein stability index [2] was 0.0526.
In the case of CLVSLDILLFFR, the protein stability index [1] is reported as 0.355 and the protein stability index [2] is reported as 0.265.
Sequence CLVSLPFLLFFR has a protein stability index [1] of 0.618 and a protein stability index [2] of 0.0627.
In the case of CLVSLPIALFFR, the protein stability index [1] is reported as 0.631 and the protein stability index [2] is reported as 0.0824.
In the case of CLVSLPILDFFR, the protein stability index [1] is reported as 0.678 and the protein stability index [2] is reported as 0.638.
With CLVSLPILLFFF the protein stability index [1] was 0.42 and the protein stability index [2] was 0.304.
With CLVSLPILLFFRA the protein stability index [1] was 0.475 and the protein stability index [2] was 0.0659.
CLVSLPILLFFRF showed a protein stability index [1] of 0.483 and a protein stability index [2] of 0.0553.
CLVSLPILLFFRL gave a protein stability index [1] of 0.512 and a protein stability index [2] of 0.0549.
CLVSLPILLFFT gave a protein stability index [1] of 0.528 and a protein stability index [2] of 0.248.
Work on CLVSLPILLFPR yielded a protein stability index [1] of 0.654 and a protein stability index [2] of 0.628.
Work on CLVSLPILLGFR yielded a protein stability index [1] of 0.653 and a protein stability index [2] of 0.391.
CLVSLPILNFFR gave a protein stability index [1] of 0.66 and a protein stability index [2] of 0.637.
For CLVSLWILLFFR, the protein stability index [1] was 0.365 and the protein stability index [2] was 0.149.
Work on CLVSLYILLFFR yielded a protein stability index [1] of 0.347 and a protein stability index [2] of 0.174.
CLYSLPILLFFR showed a protein stability index [1] of 0.586 and a protein stability index [2] of 0.0509.
DLVSLPILLFFR showed a protein stability index [1] of 0.637 and a protein stability index [2] of 0.109.
For DVTRLDAIYFRI, the protein stability index [1] was 0.739 and the protein stability index [2] was 0.481.
GFYMCSVGCWFR showed a protein stability index [1] of 0.632 and a protein stability index [2] of 0.204.
Sequence GLHMCSVGCWFR has a protein stability index [1] of 0.682 and a protein stability index [2] of 0.214.
In the case of GLRMCSVGCWFR, the protein stability index [1] is reported as 0.676 and the protein stability index [2] is reported as 0.248.
With GLVSLPILLFFR the protein stability index [1] was 0.608 and the protein stability index [2] was 0.0632.
With GLYMCHVGCWFR the protein stability index [1] was 0.629 and the protein stability index [2] was 0.279.
Work on GLYMCLVGCWFR yielded a protein stability index [1] of 0.406 and a protein stability index [2] of 0.254.
In the case of GLYMCRVGCWFR, the protein stability index [1] is reported as 0.638 and the protein stability index [2] is reported as 0.291.
Work on GLYMCSVGCKFR yielded a protein stability index [1] of 0.654 and a protein stability index [2] of 0.619.
In the case of GLYMCSVGCVFR, the protein stability index [1] is reported as 0.627 and the protein stability index [2] is reported as 0.561.
Sequence GLYMCSVGCWER has a protein stability index [1] of 0.656 and a protein stability index [2] of 0.632.
With GLYMCSVGCWFRH the protein stability index [1] was 0.616 and the protein stability index [2] was 0.271.
With GLYMCSVGCWFRL the protein stability index [1] was 0.624 and the protein stability index [2] was 0.114.
GLYMCSVGCWTR gave a protein stability index [1] of 0.601 and a protein stability index [2] of 0.555.
For GLYMCSVGLWFR, the protein stability index [1] was 0.534 and the protein stability index [2] was 0.184.
In the case of GLYMCSVMCWFR, the protein stability index [1] is reported as 0.383 and the protein stability index [2] is reported as 0.263.
In the case of GLYMCSVNCWFR, the protein stability index [1] is reported as 0.566 and the protein stability index [2] is reported as 0.487.
Sequence GLYMCSVQCWFR has a protein stability index [1] of 0.416 and a protein stability index [2] of 0.354.
GLYMCVVGCWFR gave a protein stability index [1] of 0.354 and a protein stability index [2] of 0.217.
Work on GLYMCWVGCWFR yielded a protein stability index [1] of 0.387 and a protein stability index [2] of 0.182.
GLYMFSVGCWFR was tested, and the protein stability index [1] was 0.524 and the protein stability index [2] was 0.234.
GLYMNSVGCWFR gave a protein stability index [1] of 0.704 and a protein stability index [2] of 0.351.
GVTRLDAIYFRI was tested, and the protein stability index [1] was 0.69 and the protein stability index [2] was 0.229.
KITLPMCPLLLR gave a protein stability index [1] of 0.653 and a protein stability index [2] of 0.253.
Work on MLYMCSVGCWFR yielded a protein stability index [1] of 0.604 and a protein stability index [2] of 0.328.
For NLYMCSVGCWFR, the protein stability index [1] was 0.657 and the protein stability index [2] was 0.414.
Work on PLYMCSVGCWFR yielded a protein stability index [1] of 0.643 and a protein stability index [2] of 0.462.
Work on RALRVLLPLYFR yielded a protein stability index [1] of 0.669 and a protein stability index [2] of 0.353.
Work on RLLRVLLPLYFR yielded a protein stability index [1] of 0.673 and a protein stability index [2] of 0.407.
In the case of RLYMCSVGCWFR, the protein stability index [1] is reported as 0.644 and the protein stability index [2] is reported as 0.382.
For RQTRLDAIYFRI, the protein stability index [1] was 0.703 and the protein stability index [2] was 0.505.
For RSKRVLLPLYFR, the protein stability index [1] was 0.675 and the protein stability index [2] was 0.362.
For RSLKVLLPLYFR, the protein stability index [1] was 0.666 and the protein stability index [2] was 0.27.
Work on RSLMVLLPLYFR yielded a protein stability index [1] of 0.637 and a protein stability index [2] of 0.34.
RSLRFLLPLYFR gave a protein stability index [1] of 0.632 and a protein stability index [2] of 0.322.
Work on VRGAVGTWRLVG yielded a protein stability index [3] of 0.694 and a protein stability index [2] of 0.171.
VRGAVLGWRLVG gave a protein stability index [3] of 0.677 and a protein stability index [2] of 0.146.
In the case of VRGAVWGWRLVG, the protein stability index [3] is reported as 0.649 and the protein stability index [2] is reported as 0.108.
Sequence VRGMVGGWRLVG has a protein stability index [3] of 0.683 and a protein stability index [2] of 0.161.
VRGTVGGWRLVG was tested, and the protein stability index [3] was 0.705 and the protein stability index [2] was 0.151.
In the case of VRVAVGGWRLVG, the protein stability index [3] is reported as 0.652 and the protein stability index [2] is reported as 0.111.
VWGAVGGWRLVG gave a protein stability index [3] of 0.692 and a protein stability index [2] of 0.134.
For WKHKKGQKQKIN, the protein stability index [3] was 0.546 and the protein stability index [2] was 0.135.
In the case of WSMRWTFRYWVN, the protein stability index [3] is reported as 0.48 and the protein stability index [2] is reported as 0.0469.
